Measured values as given in the supplement of paper PMC12338614.
± gives the uncertainty stated by the source.

B1: library; numbered along this chain (parent)
chain: MEVVDPQQLGMFTEGELMSVGMDTFIHRIDSTEVIYQPRRKRAKLIGKYLMGDLLGEGSYGKVKEVLDSETLCRRAVKILKKKKLRRIPNGEANVKKEIQLLRRLRHKNVIQLVDVLYNEEKQKMYMVMEYCVCGMQEMLDSVPEKRFPVCQAHGYFCQLIDGLEYLHSQGIVHKDIKPGNLLLTTGGTLKISDLGVAEALHPFAADDTCRTSQGSPAFQPPEIANGLDTFSGFKVDIWSAGVTLYNITTGLYPFEGDNIYKLFENIGKGSYAIPGDCGPPLSDLLKGMLEYEPAKRFSIRQIRQHSWFRKKHPPAEAPVPIPPSPDTKDRWRSMTVVPYLEDLHGADEDEDLFDIEDDIIYTQDFTVPGQVPEEEASHNGQRRGLPKAVCMNGTEAAQLSTKSRAEGRAPNPARKACSASSKIRRLSACKQQ

Variants of: B1
Assay: STK11 functional score (HeLa growth suppression), rescaled enrichment; synonymous median = 1, nonsense median = 0 (normalised score)
Conditions: with HeLa; variant type: missense
Experimental: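 Deep mutational scan (TileSeq/POPCode codon randomisation) of full-length codon-optimised STK11 cDNA integrated at a Bxb1 landing pad (AAVS1) in HeLa cells. Restoring functional STK11 suppresses HeLa proliferation. Variant frequencies were measured by NGS before and after about two weeks of growth. The error-corrected enrichment log-ratio was rescaled so that synonymous median = 1 and nonsense median = 0, scores above 1 were compressed, and codon-level and three biological replicate scores were combined; error is the bootstrapped standard error. Scale: synonymous median = 1, nonsense median = 0; below 0.5 = damaging.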

STK11 functional score, by site and new letter:
D5: H 1.13 ± 0.53; N 1.24 ± 0.67
I26: M 1.63 ± 0.33
M18: E 1.56 ± 0.2; H 1.37 ± 0.18; S 1.31 ± 0.14; Y 1.43 ± 0.41; R 0.834 ± 0.13; D 0.127 ± 0.19; T 1.62 ± 0.27; G 1.36 ± 0.22; P 1.69 ± 0.13; W 0.78 ± 0.076; V 0.413 ± 0.24; A 1.69 ± 0.16; Q 1.28 ± 0.12; L 1.08 ± 0.34; I 0.652 ± 0.32; C 0.902 ± 0.4
M22: F 1 ± 0.23; V 1.13 ± 0.69; P 1.54 ± 0.16; A 1.21 ± 0.85; H 1.67 ± 0.21; Y 1.57 ± 0.096; R 1.65 ± 0.38; T 1.63 ± 0.51; W 0.633 ± 0.55; C 1.21 ± 0.38; G 1.07 ± 0.099; S 1.68 ± 0.34
S19: P 1.32 ± 0.23; E 1.45 ± 0.34; Y 1.01 ± 0.15; W 1.43 ± 0.4; V 0.694 ± 0.18; F 0.945 ± 0.12; A 0.891 ± 0.38; H 0.00479 ± 0.13; L 0.775 ± 0.094; G 1.64 ± 0.2; R 0.749 ± 0.093; I 1.34 ± 0.41; K 1.53 ± 0.39
S31: Y 1.36 ± 0.18; V 1.58 ± 0.21; I 1.41 ± 0.12; F 0.829 ± 0.12; W 0.921 ± 0.11; G 1.57 ± 0.12; M 0.857 ± 0.12; Q 1.37 ± 0.39; D 1.28 ± 0.37; R 1.54 ± 0.28; T 1.5 ± 0.11; L 1.02 ± 0.091; A 1.44 ± 0.17; H -0.108 ± 0.4
V20: H 1.44 ± 0.17; D 1.59 ± 0.14; T 1.6 ± 0.17; S 1.46 ± 0.22; P 1.43 ± 0.45; I 1.22 ± 0.31; R 1.56 ± 0.14; L 0.787 ± 0.15; G 1.43 ± 0.12; A 1.29 ± 0.21; C 0.242 ± 0.13
G15: V 1.1 ± 0.24; S 1.28 ± 0.12; A 0.969 ± 0.36; R 1.4 ± 0.4; P 1.66 ± 0.28; C 1.15 ± 0.21; N 1.69 ± 0.15; T 1.68 ± 0.17; Y 1.58 ± 0.29; E 1.68 ± 0.46; D 1.72 ± 0.12; F 1.05 ± 0.1; L 1.48 ± 0.2; W 0.148 ± 0.38
G21: A 1.39 ± 0.38; R 1.2 ± 0.64
D23: H 1.22 ± 0.68; G 1.54 ± 0.2
E2: Q 1.21 ± 0.54; V 1.36 ± 0.83; K 1.16 ± 0.78
L9: P 1.43 ± 0.21; M 1.01 ± 0.32; F 1.06 ± 0.19; N 1.67 ± 0.14; W 1.49 ± 0.16; R 1.12 ± 0.2; S 1.37 ± 0.19; V 0.506 ± 0.58; C 1.54 ± 0.14; I 1.37 ± 0.3; Y 1.56 ± 0.37; H 1.67 ± 0.15; A 1.28 ± 0.12
Q8: L 1.5 ± 0.66; K 0.838 ± 0.23
P6: D 1.66 ± 0.16; T 0.874 ± 0.12; R 1.29 ± 0.12; G 0.386 ± 0.15; S 1.52 ± 0.17; W 0.513 ± 0.074; I 1.61 ± 0.19; F 0.754 ± 0.11; A 0.942 ± 0.1; E 1.24 ± 0.47; M 0.679 ± 0.19; Y 1.67 ± 0.12; V 1.5 ± 0.15; C 1.1 ± 0.49; L 0.99 ± 0.12
G10: C 1.4 ± 0.19; Y 1.18 ± 0.15; P 1.18 ± 0.49; I 1.64 ± 0.13; D 1.4 ± 0.1; A 1.38 ± 0.17; S 1.17 ± 0.092; M 1.51 ± 0.42; F 1.56 ± 0.41; W 1.33 ± 0.084; V 0.971 ± 0.18; L 1.63 ± 0.21
V34: Y 1.05 ± 0.13; I 1.1 ± 0.34; G 1.08 ± 0.45; S 1.29 ± 0.16; A 1.03 ± 0.57; L 1.13 ± 0.19; C 0.884 ± 0.4; F 0.976 ± 0.2; D 0.585 ± 0.37; R 0.822 ± 0.17
V3: I 1.06 ± 0.43; W 0.953 ± 0.5; M 0.72 ± 0.44; P 1.69 ± 0.37; D -0.174 ± 0.11; G 1.47 ± 0.26; S 1.35 ± 0.17; L 0.558 ± 0.13; A 1.46 ± 0.16; F 0.991 ± 0.32
T13: I 1.01 ± 0.37; S 0.282 ± 0.092; F 1.25 ± 0.15; G 0.27 ± 0.17; C 1.59 ± 0.25; L 0.906 ± 0.11; P 1.58 ± 0.38; R 1.08 ± 0.37; K 0.0631 ± 0.2; V 1.6 ± 0.25; W 0.14 ± 0.079; A 1.5 ± 0.23
M11: T 1.23 ± 0.65; K 1.32 ± 0.44; W 1.71 ± 0.11; C 1.69 ± 0.36; L 1.52 ± 0.23; S 1.33 ± 0.41; G 1.4 ± 0.54; V 1.55 ± 0.48
D30: H 1.31 ± 0.68; L 1.07 ± 0.12; W 1.3 ± 0.58; Y -0.0227 ± 0.33; V 0.22 ± 0.12; P 1.67 ± 0.17; C 1.44 ± 0.51; G 1.52 ± 0.3; R 1.69 ± 0.13; A 1.7 ± 0.28; T 1.62 ± 0.21; E 1.13 ± 0.49; S 1.7 ± 0.19
T24: G 1.43 ± 0.13; S 1.15 ± 0.41; A 1.36 ± 0.46; H 1.7 ± 0.17; R 0.782 ± 0.14; P 1.65 ± 0.26; L 1.18 ± 0.13; V 0.875 ± 0.17; F 1.37 ± 0.11; I 1.02 ± 0.2; W 1.6 ± 0.093; Y 1.49 ± 0.37; C 1.22 ± 0.12
L17: V 1.35 ± 0.12; F 0.925 ± 0.58; T 1.62 ± 0.18; Y 1.6 ± 0.25; I 0.851 ± 0.16; Q 1.71 ± 0.4; G 1.53 ± 0.25; R 1.22 ± 0.26; S 1.35 ± 0.55; D 1.7 ± 0.12; W 1.56 ± 0.24; A 1.68 ± 0.37; P 1.6 ± 0.25; H 1.53 ± 0.16; M 0.968 ± 0.24
V4: T 1.06 ± 0.15; H 1.65 ± 0.25; I 1.43 ± 0.16; R 1.32 ± 0.2; F 0.964 ± 0.46; D 1.45 ± 0.39; L 0.909 ± 0.33; S 0.996 ± 0.14; E 1.09 ± 0.6; G 1.03 ± 0.13; P 1.03 ± 0.13; W 1.22 ± 0.089
I29: R 1.14 ± 0.18; H 0.0412 ± 0.14; M 0.901 ± 0.47; L 1 ± 0.15; G 1.16 ± 0.8; Y 1.12 ± 0.28; T 0.53 ± 0.082; C 1.41 ± 0.41; F 0.117 ± 0.076; E 1.4 ± 0.7; S 1.32 ± 0.17; V 1.68 ± 0.14; W 1.63 ± 0.21; N 1.49 ± 0.75
R28: C 0.873 ± 0.22; S 1.59 ± 0.13; I 1.41 ± 0.49; A 1.52 ± 0.34; L 0.637 ± 0.15; W 1.18 ± 0.092; G 0.685 ± 0.16; P 0.47 ± 0.12; V 1.03 ± 0.29
I35: F 0.949 ± 0.091; M 0.908 ± 0.52; N 1.02 ± 0.76; L 1.11 ± 0.1; E 1.66 ± 0.16; D 1.67 ± 0.17; G 1.25 ± 0.57; C 1.39 ± 0.25; A 1.43 ± 0.11
H27: P 1.35 ± 0.35; Y 1.24 ± 0.73; Q 0.792 ± 0.18; M 1.63 ± 0.12; R 1.03 ± 0.18; W 0.807 ± 0.27; L 1.35 ± 0.19; V 1.05 ± 0.12; A 1.19 ± 0.11; G 1.54 ± 0.21; I 0.637 ± 0.096; S 0.805 ± 0.23; D 1.22 ± 0.62
F12: L 1.23 ± 0.68
E16: A 1.53 ± 0.46; S 1.39 ± 0.17; F 1.42 ± 0.42; L 1.15 ± 0.29; Q 1.16 ± 0.77; K 0.291 ± 0.28; C 1.38 ± 0.69
Q7: W 1.1 ± 0.13; A 1 ± 0.43; E 1.27 ± 0.34; R 1.38 ± 0.13; G 0.637 ± 0.11; M 0.16 ± 0.091; C 1.55 ± 0.45; I 1.61 ± 0.17; D 1.33 ± 0.08; S 1.02 ± 0.31; L 1.25 ± 0.13; V 1.37 ± 0.27; Y 1.22 ± 0.087; P 0.819 ± 0.22
F25: C 1.63 ± 0.46; I 1.69 ± 0.52
T32: I 0.842 ± 0.13; V 1.41 ± 0.54; L 1.16 ± 0.37; A 1.66 ± 0.13; K 0.829 ± 0.21; G 1.45 ± 0.23; R 1.36 ± 0.36; S 1.45 ± 0.21; Y 0.666 ± 0.85; H 1.68 ± 0.17; P 1.48 ± 0.37; W 1.52 ± 0.2
E14: L 1 ± 0.14; S 1.34 ± 0.15; W 0.426 ± 0.6; Q 1.35 ± 0.3; K 0.385 ± 0.59; F 1.13 ± 0.088; V 1.03 ± 0.29; M 1.62 ± 0.18; P 1.65 ± 0.34; Y 1.34 ± 0.49; D 1.22 ± 0.3; A 0.905 ± 0.29; I 1.4 ± 0.14
E33: C 1.11 ± 0.49; A 1.32 ± 0.2; F 0.855 ± 0.23; L 1 ± 0.13; S 0.81 ± 0.15; I 0.611 ± 0.19; P 1.4 ± 0.33; T 1.69 ± 0.25; D 1.09 ± 0.39; M 1.44 ± 0.2; W 0.795 ± 0.09; G 0.902 ± 0.25; N 1.33 ± 0.15; V 0.509 ± 0.087; Y 1.21 ± 0.2
